Here are results for 1 substance from paper PMC10729856.

The stoichiometry N is the number of molecules, sites or subunits per partner or assembly.

The target in the test is SidN (Lpg1083), recombinant with 6-His tag (Legionella pneumophila) (UniProt Q5ZWK2). Nature of the test: SEC. (In general: In gel filtration, larger molecules generally elute earlier.)

With “SidN (Lpg1083), recombinant with 6-His tag (from UniProt Q5ZWK2 1-227) (natural protein)”, the stoichiometry N came out at 2.
